Assay results: the DeepSol protein solubility set

Test: soluble on expression in E. coli; label from the status in PepcDB or PDB records

Q: Which “soluble on expression in E. coli” value does the source give for “MSIMLPINNNFSLSQNSFYNTISGTYADYFSAWDKWEKQALPGENRNEAVSLLKECLINQFSELQLNRLNLSSLPDNLPPQITVLEITQNALISLPELPASLEYLDACDNRLSTLPELPASLKHLDVDNNQLTMLPELPALLEYINADNNQLTMLPELPTSLEVLSVRNNQLTFLPELPESLEALDVSTNLLESLPAVPVRNHHSEETEIFFRCRENRITHIPENILSLDPTCTIILEDNPLSSRIRESLSQQTAQPDYHGPRIYFSMSDGQQNTLHRPLADAVTAWFPENKQSDVSQIWHAFEHEEHANTFSAFLDRLSDTVSARNTSGFREQVAAWLEKLSASAELRQQSFAVAADATESCEDRVALTWNNLRKTLLVHQASEGLFDNDTGALLSLGREMFRLEILEDIARDKVRTLHFVDEIEVYLAFQTMLAEKLQLSTAVKEMRFYGVSGVTANDLRTAEAMVRSREENEFTDWFSLWGPWHAVLKRTEADRWALAEEQKYEMLENEYPQRVADRLKASGLSGDADAEREAGAQVMRETEQQIYRQLTDEVLALRLPENGSQLHHS” here?
A: soluble

Q: Which “soluble on expression in E. coli” value does the source give for “LTCYGDSGQPVDWFVVYKLPALRGSGEAAQRGLQYKYLDESSGGWRDGRALINSPEGAVGRSLQPLYRSNTSQLAFLLYNDQPPQPSKAQDSSMRGHTKGVLLLDHDGGFWLVHSVPNFPPPASSAAYSWPHSACTYGQTLLCVSFPFAQFSKMGKQLTYTYPWVYNYQLEGIFAQEFPDLENVVKGHHVSQEPWNSSITLTSQAGAVFQSFAKFSKFGDDLYSGWLAAALGTNLQVQFWHKTVGILPSNCSDIWQVLNVNQIAFPGPAGPSFNSTEDHSKWCVSPKGPWTCVGDMNRNQGEEQRGGGTLCAQLPALWKAFQPLVKNYQPCNGMARKPSRAYKI” here?
A: soluble

Q: Which “soluble on expression in E. coli” value does the source give for “MRIGIVCPYSFDAPGGVQAHVLDLAEKFISQGHHVEVLGPASESTQLPDFVTRGGASLPIPYNGSVARLSFGPSTFIRARDFINRGQFDVLHIHEPNSPSFSMAALKVARGPIVATYHASSNRSLALKFALPFLRGQLEKIRGGIAVSEMARRWQVEMLGGDPILIPNGVETSQFELDKKPLWSGRIPEIVFLGRLDEHRKGLDILLRAVDRLDHEVRVTVIGGGTHPPAPRIDFVGRVSDEEKAEILGRADIYVAPNRGGESFGIVLVEAMAAGCVVVASDLEAFSAVCDAQSSQPSGILFRNGDADDLASTLRNVIENPKFGQELVTSGTQRAKEFDWDNVSKEIMRVYETVCDGTTVTAA” here?
A: not soluble

Q: For “MAHHHHHHMEVAFTISPGERQHVEYLADLFAIILAIEKVEKATLRDIITQEQYSSTITRLLDKYKSTVTYLEQSRNPFYSTIDSFWENYGSRCPAARTRIQLSFDDAKQQQQQQQDSDVNGTVDPRLVLECGQHFITLMDSLKLQQTAVDQLYTLLADLVRGLQRLGVTDQSFFHRLTTWKEKFDTMNASDELSERDTREFAFVLECGYQAFHAYLSESSARRPKA”, which “soluble on expression in E. coli” value is on record?
A: not soluble

Q: For GGSGRPEIWIAQELRRIGDEFNAYYARRV, which “soluble on expression in E. coli” value is on record?
A: soluble

Q: For “MGHHHHHHSHMEWKVKVRSDGTRYVAKRPVRDRLLKARALKIREERSGMTTDDDAVSEMKMGRYWSKEERKQHLIRAREQRKRREFMMQSRLECLREQQNGDSKPELNIIALSHRKTMKKRNKKILDNWITIQEMLAHGARSADGKRVYNPLLSVTTV”, which “soluble on expression in E. coli” value is on record?
A: not soluble

Q: Which “soluble on expression in E. coli” value does the source give for “MSLARNVPEFGMESYRIEVGRMHGVKPANIVGAIANEAGLESRYIGRIDIRDDHSVLDLPAEMPHEILQHLKKVWVSGQQLQMRRIDTTETEGHHHHHH” here?
A: soluble

Q: Which “soluble on expression in E. coli” value does the source give for “MTNNPLIPQSKLPQLGTTIFTQMSALAQQHQAINLSQGFPDFDGPRYLQERLAHHVAQGANQYAPMTGVQALREAIAQKTERLYGYQPDADSDITVTAGATEALYAAITALVRNGDEVICFDPSYDSYAPAIALSGGIVKRMALQPPHFRVDWQEFAALLSERTRLVILNTPHNPSATVWQQADFAALWQAIAGHEIFVISDEVYEHINFSQQGHASVLAHPQLRERAVAVSSFGKTYHMTGWKVGYCVAPAPISAEIRKVHQYLTFSVNTPAQLALADMLRAEPEHYLALPDFYRQKRDILVNALNESRLEILPCEGTYFLLVDYSAVSTLDDVEFCQWLTQEHGVAAIPLSVFCADPFPHKLIRLCFAKKESTLLAAAERLRQL” here?
A: soluble

Q: With “NGEHTTDIEEQYLEAIRGATQRITLANAYFFPSYRFLRELRNASRRGVKVTLILQGQPDMPFVRVCSRLTYTYLLRDGVVIHEYKQRALHGKVALIDQEWSTVGSSNLDPLSLALNLEANLFIRDKALNQHLQGHLMELAAAHSTQMSLKGAAR” as the sequence, how does the “soluble on expression in E. coli” value read?
A: not soluble
